Data: patent publication EP0651055A2 (priority 1993, dated 1995)

Columns and labels:
CC(=O)SCCC(C)(C)C = assay: purified protein, by the assay type; conditions: sodium-phosphate buffer pH 8, 27°C
CC(=O)SCC[N+](C)(C)C = assay: purified protein, by the assay type; conditions: sodium-phosphate buffer pH 8, 27°C

Substance “recombinant HuAChE mutant Glu202Gln (Homo sapiens; E233Q)” has a Km (CC(=O)SCCC(C)(C)C; other: Glu202Gln) of 230 ± 30 µM and a Km (CC(=O)SCC[N+](C)(C)C; other: Glu202Gln) of 350 ± 40 µM.
“recombinant HuAChE mutant Glu450Ala (Homo sapiens; E481A)” gave a Km (CC(=O)SCCC(C)(C)C; other: Glu450Ala) of 200 ± 40 µM and a Km (CC(=O)SCC[N+](C)(C)C; other: Glu450Ala) of 350 ± 40 µM.
“recombinant HuAChE mutant Phe338Ala (Homo sapiens; F369A)” was tested, and the Km (CC(=O)SCCC(C)(C)C; other: Phe338Ala) was 300 ± 70 µM and the Km (CC(=O)SCC[N+](C)(C)C; other: Phe338Ala) was 240 ± 20 µM.
“recombinant HuAChE mutant Tyr337Ala (Homo sapiens; Y368A)” showed a Km (CC(=O)SCCC(C)(C)C; other: Tyr337Ala) of 200 ± 30 µM and a Km (CC(=O)SCC[N+](C)(C)C; other: Tyr337Ala) of 100 ± 10 µM.
